Results taken from US20210388087A1.

Target: Human CD137 ECD (human)
Assay: single mutant vs template dBBDu183H

Chain of Human CD137 ECD (human) (chain, as listed by the source limits assumed): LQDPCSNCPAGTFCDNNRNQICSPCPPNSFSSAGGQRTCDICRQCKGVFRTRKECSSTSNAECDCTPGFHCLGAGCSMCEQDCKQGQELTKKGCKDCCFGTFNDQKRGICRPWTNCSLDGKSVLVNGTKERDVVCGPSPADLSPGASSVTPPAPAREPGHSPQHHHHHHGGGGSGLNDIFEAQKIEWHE

| Binder | fold change of affinity [fold] |
| --- | --- |
| H183/L072 VH K52E (antibody, name in Kabat numbering, V domains shown) VH: QVQLVESGGGLVQPGRSLRLSCAASGFTFSNAWMHWVRQAPGKGLEWVAQIEDKGNAYAAYYAPSVKGRFTISRDDSKNSIYLQMNSLKTEDTAVYYCHYVHYASASTVLPAFGVDAWGQGTTVTVSS VL: DIVMTQSPLSLPVTPGEPASISCQASQELVHMNRNTYLHWYQQKPGQAPRLLIYKVSNRFPGVPDRFSGSGSGTDFTLKISRVEAEDVGVYYCAQGTSVPFTFGQGTKLEIK | 0 |
| H183/L072 VH F29K (antibody, name in Kabat numbering, V domains shown) VH: QVQLVESGGGLVQPGRSLRLSCAASGFTKSNAWMHWVRQAPGKGLEWVAQIKDKGNAYAAYYAPSVKGRFTISRDDSKNSIYLQMNSLKTEDTAVYYCHYVHYASASTVLPAFGVDAWGQGTTVTVSS VL: DIVMTQSPLSLPVTPGEPASISCQASQELVHMNRNTYLHWYQQKPGQAPRLLIYKVSNRFPGVPDRFSGSGSGTDFTLKISRVEAEDVGVYYCAQGTSVPFTFGQGTKLEIK | 0 |
| H183/L072 VH D52aE (antibody, name in Kabat numbering, V domains shown) VH: QVQLVESGGGLVQPGRSLRLSCAASGFTFSNAWMHWVRQAPGKGLEWVAQIKEKGNAYAAYYAPSVKGRFTISRDDSKNSIYLQMNSLKTEDTAVYYCHYVHYASASTVLPAFGVDAWGQGTTVTVSS VL: DIVMTQSPLSLPVTPGEPASISCQASQELVHMNRNTYLHWYQQKPGQAPRLLIYKVSNRFPGVPDRFSGSGSGTDFTLKISRVEAEDVGVYYCAQGTSVPFTFGQGTKLEIK | 0 |
| H183/L072 VH K52H (antibody, name in Kabat numbering, V domains shown) VH: QVQLVESGGGLVQPGRSLRLSCAASGFTFSNAWMHWVRQAPGKGLEWVAQIHDKGNAYAAYYAPSVKGRFTISRDDSKNSIYLQMNSLKTEDTAVYYCHYVHYASASTVLPAFGVDAWGQGTTVTVSS VL: DIVMTQSPLSLPVTPGEPASISCQASQELVHMNRNTYLHWYQQKPGQAPRLLIYKVSNRFPGVPDRFSGSGSGTDFTLKISRVEAEDVGVYYCAQGTSVPFTFGQGTKLEIK | 0 |
| H183/L072 VH F29H (antibody, name in Kabat numbering, V domains shown) VH: QVQLVESGGGLVQPGRSLRLSCAASGFTHSNAWMHWVRQAPGKGLEWVAQIKDKGNAYAAYYAPSVKGRFTISRDDSKNSIYLQMNSLKTEDTAVYYCHYVHYASASTVLPAFGVDAWGQGTTVTVSS VL: DIVMTQSPLSLPVTPGEPASISCQASQELVHMNRNTYLHWYQQKPGQAPRLLIYKVSNRFPGVPDRFSGSGSGTDFTLKISRVEAEDVGVYYCAQGTSVPFTFGQGTKLEIK | 0 |
| H183/L072 VH H35K (antibody, name in Kabat numbering, V domains shown) VH: QVQLVESGGGLVQPGRSLRLSCAASGFTFSNAWMKWVRQAPGKGLEWVAQIKDKGNAYAAYYAPSVKGRFTISRDDSKNSIYLQMNSLKTEDTAVYYCHYVHYASASTVLPAFGVDAWGQGTTVTVSS VL: DIVMTQSPLSLPVTPGEPASISCQASQELVHMNRNTYLHWYQQKPGQAPRLLIYKVSNRFPGVPDRFSGSGSGTDFTLKISRVEAEDVGVYYCAQGTSVPFTFGQGTKLEIK | 0 |
| H183/L072 VH G26K (antibody, name in Kabat numbering, V domains shown) VH: QVQLVESGGGLVQPGRSLRLSCAASKFTFSNAWMHWVRQAPGKGLEWVAQIKDKGNAYAAYYAPSVKGRFTISRDDSKNSIYLQMNSLKTEDTAVYYCHYVHYASASTVLPAFGVDAWGQGTTVTVSS VL: DIVMTQSPLSLPVTPGEPASISCQASQELVHMNRNTYLHWYQQKPGQAPRLLIYKVSNRFPGVPDRFSGSGSGTDFTLKISRVEAEDVGVYYCAQGTSVPFTFGQGTKLEIK | 0 |
| H183/L072 VH D52aH (antibody, name in Kabat numbering, V domains shown) VH: QVQLVESGGGLVQPGRSLRLSCAASGFTFSNAWMHWVRQAPGKGLEWVAQIKHKGNAYAAYYAPSVKGRFTISRDDSKNSIYLQMNSLKTEDTAVYYCHYVHYASASTVLPAFGVDAWGQGTTVTVSS VL: DIVMTQSPLSLPVTPGEPASISCQASQELVHMNRNTYLHWYQQKPGQAPRLLIYKVSNRFPGVPDRFSGSGSGTDFTLKISRVEAEDVGVYYCAQGTSVPFTFGQGTKLEIK | 0 |
| H183/L072 VH M34K (antibody, name in Kabat numbering, V domains shown) VH: QVQLVESGGGLVQPGRSLRLSCAASGFTFSNAWKHWVRQAPGKGLEWVAQIKDKGNAYAAYYAPSVKGRFTISRDDSKNSIYLQMNSLKTEDTAVYYCHYVHYASASTVLPAFGVDAWGQGTTVTVSS VL: DIVMTQSPLSLPVTPGEPASISCQASQELVHMNRNTYLHWYQQKPGQAPRLLIYKVSNRFPGVPDRFSGSGSGTDFTLKISRVEAEDVGVYYCAQGTSVPFTFGQGTKLEIK | 0 |
| H183/L072 VH I51H (antibody, name in Kabat numbering, V domains shown) VH: QVQLVESGGGLVQPGRSLRLSCAASGFTFSNAWMHWVRQAPGKGLEWVAQHKDKGNAYAAYYAPSVKGRFTISRDDSKNSIYLQMNSLKTEDTAVYYCHYVHYASASTVLPAFGVDAWGQGTTVTVSS VL: DIVMTQSPLSLPVTPGEPASISCQASQELVHMNRNTYLHWYQQKPGQAPRLLIYKVSNRFPGVPDRFSGSGSGTDFTLKISRVEAEDVGVYYCAQGTSVPFTFGQGTKLEIK | 0 |

Results, then the binder that gave them:

| fold change of affinity [fold] | Binder |
| --- | --- |
| 0 | H183/L072 VH W33K (antibody, name in Kabat numbering, V domains shown) VH: QVQLVESGGGLVQPGRSLRLSCAASGFTFSNAKMHWVRQAPGKGLEWVAQIKDKGNAYAAYYAPSVKGRFTISRDDSKNSIYLQMNSLKTEDTAVYYCHYVHYASASTVLPAFGVDAWGQGTTVTVSS VL: DIVMTQSPLSLPVTPGEPASISCQASQELVHMNRNTYLHWYQQKPGQAPRLLIYKVSNRFPGVPDRFSGSGSGTDFTLKISRVEAEDVGVYYCAQGTSVPFTFGQGTKLEIK |
| 0 | H183/L072 VH N31K (antibody, name in Kabat numbering, V domains shown) VH: QVQLVESGGGLVQPGRSLRLSCAASGFTFSKAWMHWVRQAPGKGLEWVAQIKDKGNAYAAYYAPSVKGRFTISRDDSKNSIYLQMNSLKTEDTAVYYCHYVHYASASTVLPAFGVDAWGQGTTVTVSS VL: DIVMTQSPLSLPVTPGEPASISCQASQELVHMNRNTYLHWYQQKPGQAPRLLIYKVSNRFPGVPDRFSGSGSGTDFTLKISRVEAEDVGVYYCAQGTSVPFTFGQGTKLEIK |
| 0 | H183/L072 VH N53H (antibody, name in Kabat numbering, V domains shown) VH: QVQLVESGGGLVQPGRSLRLSCAASGFTFSNAWMHWVRQAPGKGLEWVAQIKDKGHAYAAYYAPSVKGRFTISRDDSKNSIYLQMNSLKTEDTAVYYCHYVHYASASTVLPAFGVDAWGQGTTVTVSS VL: DIVMTQSPLSLPVTPGEPASISCQASQELVHMNRNTYLHWYQQKPGQAPRLLIYKVSNRFPGVPDRFSGSGSGTDFTLKISRVEAEDVGVYYCAQGTSVPFTFGQGTKLEIK |
| 0 | H183/L072 VH W33H (antibody, name in Kabat numbering, V domains shown) VH: QVQLVESGGGLVQPGRSLRLSCAASGFTFSNAHMHWVRQAPGKGLEWVAQIKDKGNAYAAYYAPSVKGRFTISRDDSKNSIYLQMNSLKTEDTAVYYCHYVHYASASTVLPAFGVDAWGQGTTVTVSS VL: DIVMTQSPLSLPVTPGEPASISCQASQELVHMNRNTYLHWYQQKPGQAPRLLIYKVSNRFPGVPDRFSGSGSGTDFTLKISRVEAEDVGVYYCAQGTSVPFTFGQGTKLEIK |
| 0 | H183/L072 VH N53E (antibody, name in Kabat numbering, V domains shown) VH: QVQLVESGGGLVQPGRSLRLSCAASGFTFSNAWMHWVRQAPGKGLEWVAQIKDKGEAYAAYYAPSVKGRFTISRDDSKNSIYLQMNSLKTEDTAVYYCHYVHYASASTVLPAFGVDAWGQGTTVTVSS VL: DIVMTQSPLSLPVTPGEPASISCQASQELVHMNRNTYLHWYQQKPGQAPRLLIYKVSNRFPGVPDRFSGSGSGTDFTLKISRVEAEDVGVYYCAQGTSVPFTFGQGTKLEIK |
